These results are taken from article PMC11251186, “Higher-order structure and proteoforms of co-occurring C4b-binding protein assemblies in human serum” (The EMBO Journal, 2024).

Where “and” joins values, the source holds several entries; their conditions need not be identical. Equal values may be shown once.

B1: C4b-binding protein beta chain (C4BPβ) (natural protein, human, UniProt P20851 18-252, looked up)
chain: SDAEHCPELPPVDNSIFVAKEVEGQILGTYVCIKGYHLVGKKTLFCNASKEWDNTTTECRLGHCPDPVLVNGEFSSSGPVNVSDKITFMCNDHYILKGSNRSQCLEDHTWAPPFPICKSRDCDPPGNPVHGYFEGNNFTLGSTISYYCEDRYYLVGVQEQQCVDGEWSSALPVCKLIQEAPKPECEKALLAFQESKNLCEAMENFMQQLKESGMTMEELKYSLELKKAELKAKLL
modifications: N-glycans at N64, N71, N98, N117, N154
notes: three CCP domains; N-terminus S18 after the propeptide cleavage; Disulfide-linked to C4BPα in the assembly; also called β chain; source: endogenous, pooled healthy donor serum (SEC LC-MS)
B2: C4b-binding protein alpha chain (C4BPα) (natural protein, human, UniProt P04003 49-597, looked up)
chain: NCGPPPTLSFAAPMDITLTETRFKTGTTLKYTCLPGYVRSHSTQTLTCNSDGEWVYNTFCIYKRCRHPGELRNGQVEIKTDLSFGSQIEFSCSEGFFLIGSTTSRCEVQDRGVGWSHPLPQCEIVKCKPPPDIRNGRHSGEENFYAYGFSVTYSCDPRFSLLGHASISCTVENETIGVWRPSPPTCEKITCRKPDVSHGEMVSGFGPIYNYKDTIVFKCQKGFVLRGSSVIHCDADSKWNPSPPACEPNSCINLPDIPHASWETYPRPTKEDVYVVGTVLRYRCHPGYKPTTDEPTTVICQKNLRWTPYQGCEALCCPEPKLNNGEITQHRKSRPANHCVYFYGDEISFSCHETSRFSAICQGDGTWSPRTPSCGDICNFPPKIAHGHYKQSSSYSFFKEEIIYECDKGYILVGQAKLSCSYSHWSAPAPQCKALCRKPELVNGRLSVDKDQYVEPENVTIQCDSGYGVVGPQSITCSGNRTWYPEVPKCEWETPEGCEQVLTGKRLMQCLPNPEDVKMALEVYKLSLEIEQLELQRDSARQSTLDKEL
modifications: N-glycans at N221, N506, N528
notes: eight CCP domains and the C-terminal oligomerization core; without the signal peptide; Disulfide-linked to the other C4BPα chains and to C4BPβ in the assembly; also called α chain; source: endogenous, pooled healthy donor serum (SEC LC-MS)

The target in data set [1] is T1, vitamin K-dependent protein S (ProS) (human, UniProt P07225 42-676, N-glycans at N499, N509, N530).
T1 construct: vitamin K-dependent protein S (ProS), human serum protein; GLA domain, four EGF-like domains (E1-E4), two laminin G-like domains (LG1-2); without signal peptide and propeptide; source: purified from pooled plasma of more than 16 healthy donors together with C4BP (bought: Complement Technology, Inc); endogenous, pooled healthy donor serum (SEC LC-MS)
T1 sequence (looked up): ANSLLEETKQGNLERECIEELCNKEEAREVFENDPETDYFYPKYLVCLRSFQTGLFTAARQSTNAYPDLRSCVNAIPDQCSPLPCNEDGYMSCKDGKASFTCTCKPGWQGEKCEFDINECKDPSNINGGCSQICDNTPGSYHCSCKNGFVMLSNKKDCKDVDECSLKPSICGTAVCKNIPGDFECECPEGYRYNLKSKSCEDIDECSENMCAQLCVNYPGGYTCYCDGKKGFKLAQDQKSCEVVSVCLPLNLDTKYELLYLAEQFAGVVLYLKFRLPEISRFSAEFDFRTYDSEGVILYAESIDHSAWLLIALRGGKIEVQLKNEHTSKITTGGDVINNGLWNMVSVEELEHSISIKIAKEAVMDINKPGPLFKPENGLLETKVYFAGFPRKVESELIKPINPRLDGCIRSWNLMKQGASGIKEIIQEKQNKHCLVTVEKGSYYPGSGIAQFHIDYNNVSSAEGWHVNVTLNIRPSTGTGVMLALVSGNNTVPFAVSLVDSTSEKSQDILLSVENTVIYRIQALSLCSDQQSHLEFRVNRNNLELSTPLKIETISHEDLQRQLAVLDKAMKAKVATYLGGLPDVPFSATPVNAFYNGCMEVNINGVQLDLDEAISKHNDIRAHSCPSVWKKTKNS
Kind of data set: cross-linking; C4BP 0.5 g/l in PBS pH 7.4, 1 mM DSS or 5 mM DMTMM, 30 min, room temperature; SDS-PAGE bands digested with trypsin, LC-MS/MS; cross-links kept if found in two of three replicates. Particulars: both partners purified.

Data set [2] concerns the target B2. The data set is described as above. The note with it: both partners purified.
Data set [3] deals with the molecule itself. The data set is described as above.
For data set [4], the target named is B1. Kind of data set: native MS; Orbitrap charge detection MS (CDMS) of native C4BP, 1 M ammonium acetate pH 7.4, ~1 μM. Particulars: both partners purified.
Data set [5] has as its target T2, C4b-binding protein beta chain (C4BPβ) (Homo sapiens (Human), UniProt P20851, N-glycans at N64, N71, N98, N117, N154).
T2 chain: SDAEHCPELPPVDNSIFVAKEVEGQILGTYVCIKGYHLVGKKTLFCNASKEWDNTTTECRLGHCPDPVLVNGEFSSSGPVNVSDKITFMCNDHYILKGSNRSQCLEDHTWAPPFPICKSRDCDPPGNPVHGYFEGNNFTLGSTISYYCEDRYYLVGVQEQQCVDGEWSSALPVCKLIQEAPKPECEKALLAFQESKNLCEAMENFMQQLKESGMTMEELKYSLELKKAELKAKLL
Kind of data set: native CDMS, mass photometry, XL-MS and HS-AFM of co-purified serum C4BP complex; C4BPβ present only disulfide-linked to C4BPα in the serum C4BP assembly (α7β1/α6β1), co-purified with ProS; the non-covalent complex dissociates at pH 2 or in urea.

B1: the binding result in data set [1] and in data set [2] was “binds” each time. Turning to B2, the binding result in data set [3] was “binds”. The “stoichiometry N” value in data set [4] is 7 C4BPα chains per C4BPβ chain and 6 C4BPα chains per C4BPβ chain.

B3: vitamin K-dependent protein S (ProS) (protein)
chain: ANSLLEETKQGNLERECIEELCNKEEAREVFENDPETDYFYPKYLVCLRSFQTGLFTAARQSTNAYPDLRSCVNAIPDQCSPLPCNEDGYMSCKDGKASFTCTCKPGWQGEKCEFDINECKDPSNINGGCSQICDNTPGSYHCSCKNGFVMLSNKKDCKDVDECSLKPSICGTAVCKNIPGDFECECPEGYRYNLKSKSCEDIDECSENMCAQLCVNYPGGYTCYCDGKKGFKLAQDQKSCEVVSVCLPLNLDTKYELLYLAEQFAGVVLYLKFRLPEISRFSAEFDFRTYDSEGVILYAESIDHSAWLLIALRGGKIEVQLKNEHTSKITTGGDVINNGLWNMVSVEELEHSISIKIAKEAVMDINKPGPLFKPENGLLETKVYFAGFPRKVESELIKPINPRLDGCIRSWNLMKQGASGIKEIIQEKQNKHCLVTVEKGSYYPGSGIAQFHIDYNNVSSAEGWHVNVTLNIRPSTGTGVMLALVSGNNTVPFAVSLVDSTSEKSQDILLSVENTVIYRIQALSLCSDQQSHLEFRVNRNNLELSTPLKIETISHEDLQRQLAVLDKAMKAKVATYLGGLPDVPFSATPVNAFYNGCMEVNINGVQLDLDEAISKHNDIRAHSCPSVWKKTKNS
modifications: N-glycans at N499, N509, N530
Take B3: in data set [5], the binding result was “binds”.
